Laboratory results from patent US6541002.

Target: Vpr-Gal4AD chimeric protein (UniProt P12520)

Substance | beta-galactosidase activity, liquid culture of double transformant yeast, relative to wild type UDG-Gal4BD
UDG-Gal4BD chimeric protein UDG F225G | exhibited only 7% of the ability to interact with Vpr-Gal4AD chimeric protein
UDG-Gal4BD chimeric protein UDG W222G | exhibited less than half (43%) of the ability to interact with Vpr-Gal4AD chimeric protein
